Assays:
[1] = biological target: recombinant HLA-DR1 protein bound to a hemagglutinin (HA) peptide; experiment: pull-down
[2] = biological target: pfiT, tag-less (GST removed with PreScission protease) (Pseudomonas fluorescens); experiment: AUC; sedimentation velocity, pfiT alone at 3.6 µM, 20°C, 50,000 rpm, 10 mM Hepes pH 7.4, 150 mM NaCl, 2 mM DTT; c(s) and c(M) distributions (SEDFIT)
[3] = biological target: pfiT, tag-less (GST removed with PreScission protease) (Pseudomonas fluorescens); experiment: AUC; sedimentation equilibrium, pfiT alone at 9 µM and 18 µM, 20°C, 20,000/25,000/30,000 rpm, HBS; global fit with monomer-dimer model (SEDPHAT); dimer to monomers

Work on “pfiT, tag-less (GST removed with PreScission protease) (natural protein)” yielded an IC50 [1] of 47 µM, a stoichiometry N [2] of 2 and a Kd [3] of 0.15 µM.

— paper PMC3873459
